B1: CP08H03/Vκ8 S29A (antibody, IgG4, V domains shown)
VH: EVQLLESGGGLVQPGGSLRLSCAASGFIFSSHGMSWVRQAPGKGLEWVATISSGGTYTYYPDSVKGRFTISRDNSKNTLYLQMNSLKAEDTAMYYCARHDFDYFPYWFAHWGQGTLVTVSS
VL: EIVLTQSPATLSLSPGERATLSCRANSAVSYMYWYQQKPGQAPRPWIYLTSNRATGVPARFSGSGSGTDYTLTISSLEPEDFAVYYCQQWSSNPPTFGQGTKLEIK
notes: IgG4 (S241P), kappa; also called CP08_H03/Parent VL; CP08_H03/Parental
B2: chimeric antibody VH0/Vκ0 (antibody, IgG4, V domains shown)
VH: EVQLVESGGDLVKPGGSLKLACAASGFIFSSHGMSWVRQTPDKRLEWVATISSGGTYTYYPDSVKGRFTISRDNDKNTLYLQMNSLKSEDTAMYYCARHDFDYDAAWFAYWGQGTLVTVSS
VL: QIVLTQSPALMSASPGVKVTMTCSANSSVSYMYWYRQKPRSSPKPWIYLTSNLASGVPARFSGSGSGTSYSLTISSMEAEDAATYYCQQWSSNPPTFGSGTKLEIK
notes: IgG4 (S241P), kappa; also called VH0/Vκ0 (control); Chimeric VH0/Vκ0

Key:
[1] = target: T1, CEACAM3 on transfected HeLa cells (human, UniProt P40198 35-252); experiment: flow cytometry titration, HeLa-CEACAM3 transfectants, anti-human IgG4 FITC
T1 construct: whole, on cells; also called HeLa-CEACAM3; HeLa C3
T1 sequence (looked up): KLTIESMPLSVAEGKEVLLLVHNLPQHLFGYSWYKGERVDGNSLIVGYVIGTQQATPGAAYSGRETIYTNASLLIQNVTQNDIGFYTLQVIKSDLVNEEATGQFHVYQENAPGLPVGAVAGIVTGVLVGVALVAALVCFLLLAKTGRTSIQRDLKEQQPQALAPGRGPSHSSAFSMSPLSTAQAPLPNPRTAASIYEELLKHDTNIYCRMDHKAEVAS
Method: FIGS. 31A and 31B show flow cytometry analyses of stable HeLa CEACAM1 (HeLa C1) transfectant, stable HeLa CEACAM3 transfectant (HeLa C3), stable HeLa CEACAM5 transfectant (HeLa C5), stable HeLa CEACAM6 transfectant (HeLa C6), and stable HeLa CEACAM8 transfectant (HeLa C8). FIG. 31A: 5×10\hat{ }4 indicated HeLa transfectants were washed with staining buffer and CP08H03/Vκ8 S29A (labeled “CP08”, left) or CEACAM1 antibody CM-24 was incubated at room temperature for 30 min, washed twice with staining buffer, and stained for anti-human IgG4 Fluorescein isothiocyanate (FITC) conjugated secondary antibody at room temperature for 20 min. Fluorescence intensities were determined by flow cytometry. Live cells were determined by 4′,6-diamidino-2-phenylindole (DAPI) staining as shown on the y-axis. Staining with the respective CEACAM1 antibody is shown on the x-axis. […]
The cervical adenocarcinoma cell line HeLa (ATCC No CCL-2) as well as transfected cell lines HeLaCEACAM1, HeLaCEACAM3, HeLaCEACAM5, HeLaCEACAM6 and HeLaCEACAM8 used for flow cytometry experiments were cultured at 37° C., 5.0% CO₂ in Dulbecco's modified Eagle's medium supplemented with 10% fetal bovine serum, penicillin (100 U/ml) and dihydrostreptomycin (100 μg/ml). […] Data were acquired with a Cytoflex flow cytometer (Invitrogen) and analyzed with FlowJo software (TreeStar, V7.6.5 for Windows).

[2] = target: T2, His-tagged CEACAM1 (human, UniProt P13688 35-428); experiment: SPR single-cycle, IgG captured
T2 construct: 45 kDa SPR analyte; also called CEACAM1-HIS; CEACAM1 analyte
T2 sequence: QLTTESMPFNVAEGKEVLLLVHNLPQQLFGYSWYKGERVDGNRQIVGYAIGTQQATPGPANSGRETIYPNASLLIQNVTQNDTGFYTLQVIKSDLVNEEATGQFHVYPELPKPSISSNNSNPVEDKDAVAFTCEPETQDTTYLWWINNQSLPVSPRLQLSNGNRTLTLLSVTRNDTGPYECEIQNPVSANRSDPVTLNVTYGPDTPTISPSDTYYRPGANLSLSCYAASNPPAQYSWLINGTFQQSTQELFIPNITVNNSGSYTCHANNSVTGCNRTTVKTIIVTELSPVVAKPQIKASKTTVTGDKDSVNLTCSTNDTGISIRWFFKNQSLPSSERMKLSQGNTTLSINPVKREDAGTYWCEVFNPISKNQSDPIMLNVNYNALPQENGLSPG
Method in brief: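 Biacore T200 single-cycle kinetics at 25° C in HBS-P+ (pH 7.4): antibodies (purified or HEK EBNA supernatant, 1 μg/ml) captured on Protein A to ~75 RU, His-tagged CEACAM1 analyte at 3.125–50 nM (5-point 2-fold) at 50 μl/min without regeneration. Reference channel Fc1 subtracted.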

| Binder | binding result [1] | Kd [2] [nM] | relative KD to VH0/Vκ0 [2] |
| --- | --- | --- | --- |
| B1 | no binding (tested: 100 ug/ml) | – | – |
| B2 | – | 42 | 1 |

From patent publication US20250074980A1 (BRIGHAM AND WOMEN S HOSPITAL, published 2025)
